The text below walks through data of the supplement of paper PMC5998384.

For data set [1], the system named is HeLa Kyoto. The data set can be described thus: solubility change mitosis vs G1/S (difference of NP-40 vs SDS log2 ratios) (log2 ratio difference); higher = more soluble in mitosis.
The test system of data set [2] is HeLa Kyoto. Put plainly: solubility in G1/S (NP-40 vs SDS abundance) (log2 ratio); higher = more soluble. Conditions: cell cycle stage: G1/S.
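Wherever solubility change mitosis vs G1/S (difference of NP-40 vs SDS log2 ratios) is given: synchronized HeLa Kyoto cells (double thymidine block for G1/S, nocodazole release for mitosis), protein amounts in NP-40 versus SDS lysates quantified by mass spectrometry, three biological replicates.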
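Wherever solubility in G1/S (NP-40 vs SDS abundance) is given: HeLa Kyoto cells arrested at G1/S by double thymidine block, proteins quantified by TMT10plex mass spectrometry in mild NP-40 versus SDS extracts, three biological replicates.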

Take “MDDSDTPTYYLQIEPQDGCHPGDSVERSVTCLPSASDENENQLDGDGHEHLTSSDSAMGKPQVSEQDSLNNNESCTLSCEVAAGENLQNTLCEASRDEQAFLGKDKKIPGKRSPRSKKGTAKKIPPGLFSGDIAPLMQEKVLSAVTYAVDDEEAAEVNANEQPEAPKLVLQSLFSLIRGEVEQLDSRALPLCLHQIAESYFQEEDYEKAMKFIQLERLYHEQLLANLSAIQEQWETKWKTVQPHTVTALRNSEKGFNGEDFERLTKICATHQDPLLSKHKIAAVEKSQERKCSTQLLVSEDPKEGGATTKESESKTCLGTESSKESQHTVEPLGSSPCCHQMDVQTDSPSLSVTAGKDHMEELLCSAEATLALHTQSSETAGSPSGPDSSEDACEDDSRLQLAQTEACQDVARIEGIAEDPKVFLSSKSKTEPLISPGCDRIPPALISEGKYSQAQRKELRLPLRDASEALPTDQLENNELNELQQPDLTDSDGKSPQAQADSDGSENVLCGNNQISDLGILLPEVCMAPEEKGDKDDQLNKETEDYLNSLLEGCLKDTEDSLSYEDNQDDDSDLLQDLSPEEASYSLQENLPSDESCLSLDDLAKRIEIAEVVPTEGLVSILKKRNDTVGDHPAQMQHKPSKRRVRFQEIDDSLDQDEVGGGSCILLVLLCIATVFLSVGGTALYCTFGDMESPVCTDFADNMDFYYTKLLQGVAELKHWIYLS [CNST]”: in data set [1], the “solubility change mitosis (log2)” value is -0.0548. For the same substance, the “solubility in G1/S (log2)” value in data set [2] is 0.292.

As to “MGIQGLLQFIKEASEPIHVRKYKGQVVAVDTYCWLHKGAIACAEKLAKGEPTDRYVGFCMKFVNMLLSHGIKPILVFDGCTLPSKKEVERSRRERRQANLLKGKQLLREGKVSEARECFTRSINITHAMAHKVIKAARSQGVDCLVAPYEADAQLAYLNKAGIVQAIITEDSDLLAFGCKKVILKMDQFGNGLEIDQARLGMCRQLGDVFTEEKFRYMCILSGCDYLSSLRGIGLAKACKVLRLANNPDIVKVIKKIGHYLKMNITVPEDYINGFIRANNTFLYQLVFDPIKRKLIPLNAYEDDVDPETLSYAGQYVDDSIALQIALGNKDINTFEQIDDYNPDTAMPAHSRSHSWDDKTCQKSANVSSIWHRNYSPRPESGTVSDAPQLKENPSTVGVERVISTKGLNLPRKSSIVKRPRSAELSEDDLLSQYSLSFTKKTKKNSSEGNKSLSFSEVFVPDLVNGPTNKKSVSTPPRTRNKFATFLQRKNEESGAVVVPGTRSRFFCSSDSTDCVSNKVSIQPLDETAVTDKENNLHESEYGDQEGKRLVDTDVARNSSDDIPNNHIPGDHIPDKATVFTDEESYSFESSKFTRTISPPTLGTLRSCFSWSGGLGDFSRTPSPSPSTALQQFRRKSDSPTSLPENNMSDVSQLKSEESSDDESHPLREEACSSQSQESGEFSLQSSNASKLSQCSSKDSDSEESDCNIKLLDSQSDQTSKLRLSHFSKKDTPLRNKVPGLYKSSSADSLSTTKIKPLGPARASGLSKKPASIQKRKHHNAENKPGLQIKLNELWKNFGFKKDSEKLPPCKKPLSPVRDNIQLTPEAEEDIFNKPECGRVQRAIFQ [EXO1]”, in data set [1], the “solubility change mitosis (log2)” value came to 0.136. For the same substance, the “solubility in G1/S (log2)” value in data set [2] was -0.442.

Turning to “MLSPQRALLCNLNHIHLQHVSLGLHLSRRPELQEGPLSTPPPPGDTGGKESRGPCSGTLVDANSNSPAVPCRCCQEHGPGLENRQDPSQEEEGAASPSDPGCSSSLSSCSDLSPDESPVSVYLRDLPGDEDAHPQPSIIPLEQGSPLASAGPGTCSPDSFCCSPDSCSGASSSPDPGLDSNCNALTTCQDVPSPGLEEEDERAEQDLPTSELLEADDGKIDAGKTEPSWKINPIWKIDTEKTKAEWKTTENNNTGWKNNGNVNSSWKSEPEKFDSGWKTNTRITDSGSKTDAGKIDGGWRSDVSEEPVPHRTITSFHELAQKRKRGPGLPLVPQAKKDRSDWLIVFSPDTELPPSGSPGGSSAPPREVTTFKELRSRSRAPAPPVPPRDPPVGWALVPPRPPPPPVPPRRKKNRPGLQPIAEGQSEEGRAVSPAAGEEAPAAKEPGAQAGLEVRSSWSFAGVPGAQRLWMAEAQSGTGQLQEQKKGLLIAVSVSVDKIISHFGAARNLVQKAQLGDSRLSPDVGHLVLTTLCPALHALVADGLKPFRKDLITGQRRSSPWSVVEASVKPGSSTRSLGTLYSQVSRLAPLSSSRSRFHAFILGLLNTKQLELWFSSLQEDAGLLSLLYLPTGFFSLARGGCPSLSTELLLLLQPLSVLTFHLDLLFEHHHHLPLGPPQAPAPPGPPPALQQTMQAMLHFGGRLAQSLRGTSKEAASDPSDSPNLPTPGSWWEQLTQASRVYASGGTEGFPLSRWAPGRHGTAAEEGAQERPLPTDEMAPGRGLWLGRLFGVPGGPAENENGALKSRRPSSWLPPTVSVLALVKRGAPPEMPSPQELEASAPRMVQTHRAVRALCDHTAARPDQLSFRRGEVLRVITTVDEDWLRCGRDGMEGLVPVGYTSLVL [RUSC1]”, the “solubility change mitosis (log2)” value in data set [1] was -0.133. Moreover, the “solubility in G1/S (log2)” value in data set [2] amounted to 0.182.

For the substance “MEKYHVLEMIGEGSFGRVYKGRRKYSAQVVALKFIPKLGRSEKELRNLQREIEIMRGLRHPNIVHMLDSFETDKEVVVVTDYAEGELFQILEDDGKLPEDQVQAIAAQLVSALYYLHSHRILHRDMKPQNILLAKGGGIKLCDFGFARAMSTNTMVLTSIKGTPLYMSPELVEERPYDHTADLWSVGCILYELAVGTPPFYATSIFQLVSLILKDPVRWPSTISPCFKNFLQGLLTKDPRQRLSWPDLLYHPFIAGHVTIITEPAGPDLGTPFTSRLPPELQVLKDEQAHRLAPKGNQSRILTQAYKRMAEEAMQKKHQNTGPALEQEDKTSKVAPGTAPLPRLGATPQESSLLAGILASELKSSWAKSGTGEVPSAPRENRTTPDCERAFPEERPEVLGQRSTDVVDLENEEPDSDNEWQHLLETTEPVPIQLKAPLTLLCNPDFCQRIQSQLHEAGGQILKGILEGASHILPAFRVLSSLLSSCSDSVALYSFCREAGLPGLLLSLLRHSQESNSLQQQSWYGTFLQDLMAVIQAYFACTFNLERSQTSDSLQVFQEAANLFLDLLGKLLAQPDDSEQTLRRDSLMCFTVLCEAMDGNSRAISKAFYSSLLTTQQVVLDGLLHGLTVPQLPVHTPQGAPQVSQPLREQSEDIPGAISSALAAICTAPVGLPDCWDAKEQVCWHLANQLTEDSSQLRPSLISGLQHPILCLHLLKVLYSCCLVSEGLCRLLGQEPLALESLFMLIQGKVKVVDWEESTEVTLYFLSLLVFRLQNLPCGMEKLGSDVATLFTHSHVVSLVSAAACLLGQLGQQGVTFDLQPMEWMAAATHALSAPAEVRLTPPGSCGFYDGLLILLLQLLTEQGKASLIRDMSSSEMWTVLWHRFSMVLRLPEEASAQEGELSLSSPPSPEPDWTLISPQGMAALLSLAMATFTQEPQLCLSCLSQHGSILMSILKHLLCPSFLNQLRQAPHGSEFLPVVVLSVCQLLCFPFALDMDADLLIGVLADLRDSEVAAHLLQVCCYHLPLMQVELPISLLTRLALMDPTSLNQFVNTVSASPRTIVSFLSVALLSDQPLLTSDLLSLLAHTARVLSPSHLSFIQELLAGSDESYRPLRSLLGHPENSVRAHTYRLLGHLLQHSMALRGALQSQSGLLSLLLLGLGDKDPVVRCSASFAVGNAAYQAGPLGPALAAAVPSMTQLLGDPQAGIRRNVASALGNLGPEGLGEELLQCEVPQRLLEMACGDPQPNVKEAALIALRSLQQEPGIHQVLVSLGASEKLSLLSLGNQSLPHSSPRPASAKHCRKLIHLLRPAHSM [STK36]”, the “solubility change mitosis (log2)” value in data set [1] stood at 0.092. In addition, in data set [2], the “solubility in G1/S (log2)” value was -0.178.

In the case of CEP350, the “solubility change mitosis (log2)” value in data set [1] was 0.0106. In addition, in data set [2], the “solubility in G1/S (log2)” value turned out to be 0.00287.

For “MAAATVGRDTLPEHWSYGVCRDGRVFFINDQLRCTTWLHPRTGEPVNSGHMIRSDLPRGWEEGFTEEGASYFIDHNQQTTAFRHPVTGQFSPENSEFILQEEPNPHMSKQDRNQRPSSMVSETSTAGTASTLEAKPGPKIIKSSSKVHSFGKRDQAIRRNPNVPVVVRGWLHKQDSSGMRLWKRRWFVLADYCLFYYKDSREEAVLGSIPLPSYVISPVAPEDRISRKYSFKAVHTGMRALIYNSSTAGSQAEQSGMRTYYFSADTQEDMNAWVRAMNQAAQVLSRSSLKRDMEKVERQAVPQANHTESCHECGRVGPGHTRDCPHRGHDDIVNFERQEQEGEQYRSQRDPLEGKRDRSKARSPYSPAEEDALFMDLPTGPRGQQAQPQRAEKNGMLPASYGPGEQNGTGGYQRAFPPRTNPEKHSQRKSNLAQVEHWARAQKGDSRSLPLDQTLPRQGPGQSLSFPENYQTLPKSTRHPSGGSSPPPRNLPSDYKYAQDRASHLKMSSEERRAHRDGTVWQLYEWQQRQQFRHGSPTAPICLGSPEFTDQGRSRSMLEVPRSISVPPSPSDIPPPGPPRVFPPRRPHTPAERVTVKPPDQRRSVDISLGDSPRRARGHAVKNSSHVDRRSMPSMGYMTHTVSAPSLHGKSADDTYLQLKKDLEYLDLKMTGRDLLKDRSLKPVKIAESDTDVKLSIFCEQDRVLQDLEDKIRALKENKDQLESVLEVLHRQMEQYRDQPQHLEKIAYQQKLLQEDLVHIRAELSRESTEMENAWNEYLKLENDVEQLKQTLQEQHRRAFFFQEKSQIQKDLWRIEDVTAGLSANKENFRILVESVKNPERKTVPLFPHPPVPSLSTSESKPPPQPSPPTSPVRTPLEVRLFPQLQTYVPYRPHPPQLRKVTSPLQSPTKAKPKVEDEAPPRPPLPELYSPEDQPPAVPPLPREATIIRHTSVRGLKRQSDERKRDRELGQCVNGDSRVELRSYVSEPELATLSGDMAQPSLGLVGPESRYQTLPGRGLSGSTSRLQQSSTIAPYVTLRRGLNAESSKATFPRPKSALERLYSGDHQRGKMSAEEQLERMKRHQKALVRERKRTLGQGERTGLPSSRYLSRPLPGDLGSVC [PLEKHA7]”, in data set [1], the “solubility change mitosis (log2)” value is 0.454. Further, the “solubility in G1/S (log2)” value in data set [2] was -0.548.

As for “MRDADADAGGGADGGDGRGGHSCRGGVDTAAAPAGGAPPAHAPGPGRDAASAARGSRMRPHIFTLSVPFPTPLEAEIAHGSLAPDAEPHQRVVGKDLTVSGRILVVRWKAEDCRLLRISVINFLDQLSLVVRTMQRFGPPVSR [LAGE3]”, the “solubility change mitosis (log2)” value in data set [1] stood at 0.0284. Further, the “solubility in G1/S (log2)” value in data set [2] amounted to 0.0355.

For the substance “MALMQELYSTPASRLDSFVAQWLQPHREWKEEVLDAVRTVEEFLRQEHFQGKRGLDQDVRVLKVVKVGSFGNGTVLRSTREVELVAFLSCFHSFQEAAKHHKDVLRLIWKTMWQSQDLLDLGLEDLRMEQRVPDALVFTIQTRGTAEPITVTIVPAYRALGPSLPNSQPPPEVYVSLIKACGGPGNFCPSFSELQRNFVKHRPTKLKSLLRLVKHWYQQYVKARSPRANLPPLYALELLTIYAWEMGTEEDENFMLDEGFTTVMDLLLEYEVICIYWTKYYTLHNAIIEDCVRKQLKKERPIILDPADPTLNVAEGYRWDIVAQRASQCLKQDCCYDNRENPISSWNVKRARDIHLTVEQRGYPDFNLIVNPYEPIRKVKEKIRRTRGYSGLQRLSFQVPGSERQLLSSRCSLAKYGIFSHTHIYLLETIPSEIQVFVKNPDGGSYAYAINPNSFILGLKQQIEDQQGLPKKQQQLEFQGQVLQDWLGLGIYGIQDSDTLILSKKKGEALFPAS [OASL]”, in data set [1], the “solubility change mitosis (log2)” value is 0.156. Besides, in data set [2], the “solubility in G1/S (log2)” value was -0.811.

Regarding “MTTLTHRARRTEISKNSEKKMESEEDSNWEKSPDNEDSGDSKDIRLTLMEEVLLLGLKDKEGYTSFWNDCISSGLRGGILIELAMRGRIYLEPPTMRKKRLLDRKVLLKSDSPTGDVLLDETLKHIKATEPTETVQTWIELLTGETWNPFKLQYQLRNVRERIAKNLVEKGILTTEKQNFLLFDMTTHPVTNTTEKQRLVKKLQDSVLERWVNDPQRMDKRTLALLVLAHSSDVLENVFSSLTDDKYDVAMNRAKDLVELDPEVEGTKPSATEMIWAVLAAFNKS [GOLPH3L]”, the “solubility change mitosis (log2)” value in data set [1] amounted to 0.0306. Moreover, the “solubility in G1/S (log2)” value in data set [2] came out at 0.202.

On to KIAA0368, for which, in data set [1], the “solubility change mitosis (log2)” value was -0.156. Besides, the “solubility in G1/S (log2)” value in data set [2] is 0.0203.
